Data reported in US20250042994A1 (HAINAN SIMCERE ZAIMING PHARMACEUTICAL, published 2025).
Positions count from the first letter of the chain named.

T1: human CD19 on Raji cells (human, UniProt P15391 20-556)
T1 construct: whole, on cells
T1 sequence (looked up): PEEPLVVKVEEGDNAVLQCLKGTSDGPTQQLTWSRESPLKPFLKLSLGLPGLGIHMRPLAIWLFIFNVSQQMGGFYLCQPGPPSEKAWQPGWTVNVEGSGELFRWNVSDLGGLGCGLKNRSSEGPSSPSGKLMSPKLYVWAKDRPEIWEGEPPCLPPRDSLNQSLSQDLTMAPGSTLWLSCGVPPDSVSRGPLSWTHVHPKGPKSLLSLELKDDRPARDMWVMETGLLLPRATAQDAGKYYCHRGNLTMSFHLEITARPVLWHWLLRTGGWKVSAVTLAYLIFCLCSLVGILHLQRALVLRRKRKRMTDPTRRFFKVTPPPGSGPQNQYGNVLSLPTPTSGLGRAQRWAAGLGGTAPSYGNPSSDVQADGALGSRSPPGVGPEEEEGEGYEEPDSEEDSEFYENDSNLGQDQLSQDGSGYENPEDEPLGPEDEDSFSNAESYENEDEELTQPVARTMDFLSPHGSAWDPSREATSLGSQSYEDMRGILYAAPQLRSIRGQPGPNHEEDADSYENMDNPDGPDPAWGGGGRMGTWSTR

T2: human CD19 exon1-3-his protein (human, UniProt P15391 20-186, limits assumed)
T2 construct: made in HEK293E cells; also called membrane-distal end; not shown: His tag
T2 sequence (looked up): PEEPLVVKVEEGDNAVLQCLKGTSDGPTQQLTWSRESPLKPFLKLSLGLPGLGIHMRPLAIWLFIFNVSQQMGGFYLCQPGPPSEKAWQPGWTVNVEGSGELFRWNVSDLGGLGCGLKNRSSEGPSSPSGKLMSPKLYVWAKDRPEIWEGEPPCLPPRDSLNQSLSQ

T3: murine CD19 protein (murine, UniProt P25918 17-287, limits assumed)
T3 construct: bought protein; also called commercial murine CD19
T3 sequence (looked up): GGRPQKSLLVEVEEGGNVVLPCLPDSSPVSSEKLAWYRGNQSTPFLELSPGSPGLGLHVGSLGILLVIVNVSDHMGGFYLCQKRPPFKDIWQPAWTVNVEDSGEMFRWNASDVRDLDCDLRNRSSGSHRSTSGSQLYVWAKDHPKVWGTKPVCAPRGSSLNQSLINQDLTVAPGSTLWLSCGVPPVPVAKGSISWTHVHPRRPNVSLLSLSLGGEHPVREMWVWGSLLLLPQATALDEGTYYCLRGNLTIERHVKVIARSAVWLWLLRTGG

T4: Human CD19-his protein (human, UniProt P15391 20-291)
T4 construct: bought protein; also called human CD19 protein; recombinant human CD19-His; not shown: His tag
T4 sequence (looked up): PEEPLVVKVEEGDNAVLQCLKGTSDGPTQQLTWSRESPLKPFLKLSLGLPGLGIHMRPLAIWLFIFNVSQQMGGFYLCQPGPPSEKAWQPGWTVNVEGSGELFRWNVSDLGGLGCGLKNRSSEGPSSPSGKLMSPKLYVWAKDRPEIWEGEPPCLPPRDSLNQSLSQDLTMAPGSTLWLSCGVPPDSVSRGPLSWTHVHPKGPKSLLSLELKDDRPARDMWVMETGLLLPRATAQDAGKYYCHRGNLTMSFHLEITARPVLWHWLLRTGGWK

T5: human CD19 on CHO-K1-human CD19 cells (human, UniProt P15391 20-556)
T5 construct: whole, on cells; also called CHO-K1-human CD19-2C8
T5 sequence (looked up): T1 sequence (looked up)

B1: F3.148.10 (antibody, human IgG1, V domains shown)
VH: EVQLQQSGAELVRPGSSVTMSCKTSGYTFTNYGINWVKQRPGQGLEWIGYIFIGNDYTEYNEKFKGKATLTSDTSSSTAYMQLSSLTSEDSAIYFCTRFYSNYYGMDPWGQGTSVTVSS
VL: not shown
notes: human-murine chimeric antibody, human IgG1
B2: F4.4.6 (antibody, human IgG1, V domains shown)
VH: QVQLQQSGAELARPGASVKLSCKASGYTFTSYWMQWVKQRPGQGLEWIGAIYPGDGDSRYTQKFKGKATLTADKSSSTAYMQLSSLASEDSAVYYCARSTTTVLGNNFEYWGQGTTLTVSS
VL: QIVLTQSPAIMSALPGEKVTMTCSASSSVSSMHWYQQKSGTSPKRWIYDTSKLASGVPARFSGSGSGTSYSLTISSMEAEDAATYYCQQWSSNPWTFGGGTKLEIK
notes: as for B1
B3: F4.78.1 (antibody, human IgG1, V domains shown)
VH: QVQIQQSGAELARPGASVKLSCKASGYTFTNYWMQWIKQRPGQGLEWIGAIYPGDGDTRYTQKFKGKATLTADKSSSTAYMQLSSLASEDSAVYYCAREEVWSPYGMDYWGQGTSVTVSS
VL: QIVLTQSPAIMSASPGEKVTITCSASSSVSYMGWFQQKPGTSPKLWIYSTSNLASGVPARFSGSGSGTSYSLTISRMEAEDAATYYCQQRSIYPLTFGAGTKLELK
notes: as for B1
B4: F3.124.7 (antibody, human IgG1, V domains shown)
VH: EVQLQQSGPVLVKPGASVKMSCKASGYTFTDYYMNWVKQRHGKSLEWIGISNPYNGGTSYNQKFKDKATLTVDKSSSTAYMELNSLTSEDSAVYYCAREGGTAQPTSGMDYWGQGTSVTVSS
VL: NIMMTQSPSSLAVSAGEKVTMSCKSSQSVLYSSNQKNYLAWYQQKPGQSPKLLIYWASTRESGVPDRFTGSGSGTDFTLTISSVQPEDPAVYYCHQYRSSYTFGGGTKLEIK
notes: as for B1
B5: F3.118.14 (antibody, human IgG1, V domains shown)
VH: QVQLQQSGAELVRPGASVTLSCKASGYTFPDYEIHWVKQTPVHGLEWIGAIDPETGGIGYNQKFTGKAMLTADKSSSTAYMELRSLTSEDSAVYFCTRNYGSRWGQGSTLTVSS
VL: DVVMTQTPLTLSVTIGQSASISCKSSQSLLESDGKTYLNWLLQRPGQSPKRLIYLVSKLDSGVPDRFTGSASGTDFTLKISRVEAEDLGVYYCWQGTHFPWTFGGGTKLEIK
notes: as for B1
B6: F3.77.6 (antibody, human IgG1, V domains shown)
VH: EFQLQQSGPELVKPGASVKISCKASGYSFTDYNMNWVKQSNGKSLEWIGTINPNYITSYNQKFKGKATLTVDQSSSTAYMQLNSLTSEDSAVYYCAGDYKGYWGQGTTLTVSS
VL: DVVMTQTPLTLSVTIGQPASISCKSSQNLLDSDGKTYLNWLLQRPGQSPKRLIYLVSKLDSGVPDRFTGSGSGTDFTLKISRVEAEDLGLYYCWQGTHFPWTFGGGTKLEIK
notes: as for B1
B7: F3.74.4 (antibody, human IgG1, V domains shown)
VH: QVQLQQSGAELVRPGASVTLSCKASGYTFTDYEMHWVKQTPVHGLEWIGGIAPETGLTTYNQKFEDKAILTADKSSRTAYMELRSLTSEDSAVYFCNPNNYGLWGTGTTVTVSS
VL: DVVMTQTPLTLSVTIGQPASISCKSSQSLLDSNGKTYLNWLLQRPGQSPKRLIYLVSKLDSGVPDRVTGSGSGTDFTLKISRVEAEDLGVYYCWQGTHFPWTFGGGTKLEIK
notes: as for B1
B8: F3.109.1 (antibody, human IgG1, V domains shown)
VH: B1 VH with T19K, N31S, F52Y, Y60F, T97A, Y103S, Y104D, G105P, P108Y, Q111H
VL: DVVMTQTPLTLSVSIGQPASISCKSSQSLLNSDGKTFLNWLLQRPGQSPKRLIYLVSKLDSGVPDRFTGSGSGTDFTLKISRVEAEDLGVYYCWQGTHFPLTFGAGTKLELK
notes: as for B1
B9: F3.148.10 (antibody, human IgG1, V domains shown)
VH: B1 VH
VL: not shown
notes: as for B1

Biological target: T1, human CD19 on Raji cells
Assay: FACS on Raji cells

Work on B1 yielded an EC50 of 0.28 nM.

For B1, the “Maximum mean fluorescence intensity” value was 31800.

Biological target: T2, human CD19 exon1-3-his protein
Assay: ELISA, coated at 2 ug/mL

B2: no binding.
B3: no binding.

Biological target: T3, murine CD19 protein
Assay: ELISA, coated murine CD19
Procedure, shortened: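 Plates coated overnight at 4° C with recombinant murine or monkey CD19 and blocked with 2% BSA. Chimeric antibodies, serially diluted from 100 nM, bound for 2 h at 37° C. TMB development for 10 min with OD450 read-out.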

B4: no binding.
B2: no binding.
B5: no binding.
B6: no binding.
B3: no binding.
B7: no binding.
B8: no binding.
B9: no binding.

Biological target: T4, Human CD19-his protein
Assay: ELISA, antibody at 10 nM

Going from B4 to B2, the OD450 falls from 2.63 to 0.58.

Compared with B5, B6 is higher in OD450: 2.9 for the first, 2.98 for the second.

First: B3
Second: B7
The OD450 of the first is lower: 1.94 for the first, 2.64 for the second.

First: B8
Second: B9
The OD450 of the first is lower: 2.92 for the first, 2.94 for the second.

Biological target: T4, Human CD19-his protein
Assay: ELISA, antibody at 100 nM

First: B4
Second: B2
The OD450 of the first is higher: 2.75 for the first, 0.79 for the second.

Going from B5 to B6, the OD450 falls from 3.21 to 2.94.

Compared with B3, B7 is higher in OD450: 1.87 for the first, 2.96 for the second.

Compared with B8, B9 is higher in OD450: 2.98 for the first, 3.01 for the second.

Biological target: T4, Human CD19-his protein
Assay: ELISA, antibody at 0.01 nM

Compared with B4, B2 is lower in OD450: 0.81 for the first, 0.1 for the second.

Going from B5 to B6, the OD450 rises from 0.19 to 0.3.

Going from B3 to B7, the OD450 falls from 0.23 to 0.21.

Going from B8 to B9, the OD450 falls from 0.24 to 0.22.

Biological target: T4, Human CD19-his protein
Assay: ELISA, antibody at 0.10 nM

Going from B4 to B2, the OD450 falls from 2.08 to 0.37.

Going from B5 to B6, the OD450 rises from 1.02 to 1.33.

Going from B3 to B7, the OD450 falls from 1.09 to 1.02.

First: B8
Second: B9
The OD450 of the first is higher: 1.18 for the first, 0.98 for the second.

Biological target: T4, Human CD19-his protein
Assay: ELISA, antibody at 1.00 nM

Going from B4 to B2, the OD450 falls from 2.6 to 0.6.

Going from B5 to B6, the OD450 rises from 2.27 to 2.69.

First: B3
Second: B7
The OD450 of the first is lower: 1.73 for the first, 2.32 for the second.

First: B8
Second: B9
The OD450 of the first is lower: 2.62 for the first, 2.66 for the second.

Biological target: T4, Human CD19-his protein
Assay: ELISA, antibody at 0.001 nM

First: B4
Second: B2
The OD450 of the first is higher: 0.18 for the first, 0.06 for the second.

First: B5
Second: B6
The OD450 of the first is lower: 0.07 for the first, 0.08 for the second.

Compared with B3, B7 is lower in OD450: 0.08 for the first, 0.07 for the second.

B8 and B9 are the same in OD450: 0.07 for the first, 0.07 for the second.

Biological target: T4, Human CD19-his protein
Assay: ELISA, antibody at 0.0001 nM

First: B4
Second: B2
The OD450 of the first is higher: 0.08 for the first, 0.05 for the second.

B5 and B6 are the same in OD450: 0.05 for the first, 0.05 for the second.

First: B3
Second: B7
The OD450 of the first is higher: 0.06 for the first, 0.05 for the second.

B8 and B9 are the same in OD450: 0.05 for the first, 0.05 for the second.

Biological target: T5, human CD19 on CHO-K1-human CD19 cells
Assay: FACS on CHO-K1-human CD19 cells

For B1, the EC50 was 0.26 nM.

B1 was tested, and the “Maximum mean fluorescence intensity” value was 4700.

Biological target: T6, monkey CD19 protein (monkey)
T6 construct: also called monkey CD19-His protein
Assay: ELISA, coated monkey CD19 protein
Experimental: (§1) Human CD19-his protein (purchased from ACROBiosystems, catalog number: CD9-H52H2) was diluted with PBS to a final concentration of 4 μg/mL, and then added to a 96-well ELISA plate at 100 μl/well. The plate was sealed with a plastic film and incubated overnight at 4° C., the plate was washed 2 times with PBS the next day, and then a blocking solution [PBS+2% (w/w) BSA] was added for blocking at room temperature for 2 h. The blocking solution was poured off, and 100 nM gradiently diluted CD19 chimeric antibody or control antibody was added at 50 μl/well. After incubation at 37° C. for 2 h, the plate was washed 3 times with PBS. […] TMB substrate was added at 50 μl/well, and incubated at room temperature for 10 min, and then a stop solution (1.0 N HCl) was added at 50 μl/well. The OD450 nm values were read by an ELISA microplate reader (Multimode Plate Reader, EnSight, purchased from Perkin Elmer).
In order to detect the species cross-binding activity of the chimeric antibodies, an ELISA plate was coated with commercial murine CD19 (ACROBiosystems, catalog number: 50510-M08H) and monkey CD19 (ACROBiosystems, catalog number: 90051-C08H), respectively, and the ELISA detection was performed according to the method in example 5.1.

In the case of B1, the “OD450 at 0.0001 nM” value is reported as 0.06 OD450.

B1 was tested, and the “OD450 at 0.001 nM” value was 0.06 OD450.

B1 was tested, and the “OD450 at 0.01 nM” value was 0.07 OD450.

For B1, the “OD450 at 0.10 nM” value was 0.13 OD450.

In the case of B1, the “OD450 at 1.00 nM” value is reported as 0.78 OD450.

With B1 the “OD450 at 10 nM” value was 1.93 OD450.

In the case of B1, the “OD450 at 100 nM” value is reported as 2.47 OD450.

Biological target: T7, monkey CD19 on HEK293T-monkey CD19 cells (monkey)
T7 construct: whole, on cells
Assay: FACS on HEK293T-monkey CD19 cells
Procedure, shortened: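 Antibody binding was read as MFI by flow cytometry and EC50 was taken from curve fitting. Before that, cells at 2×10⁶ cells/ml in PBS with 2% (w/w) BSA were exposed to samples for 2 h on ice and washed. Parental HEK293T cells were tested the same way.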

In the case of B1, the “Maximum mean fluorescence intensity” value is reported as 177.

Biological target: T4, Human CD19-his protein
Assay: ELISA on coated human CD19-His
Experimental: as §1

Compared with B4, B2 is 3.3-fold higher in “EC50 (read off the curve)” value: ~0.03 nM for the first, ~0.1 nM for the second.

Going from B5 to B6, the “EC50 (read off the curve)” value falls from ~0.3 nM to ~0.1 nM (3-fold).

Compared with B3, B7 is 2.9-fold higher in “EC50 (read off the curve)” value: ~0.07 nM for the first, ~0.2 nM for the second.

B8 and B9 are the same in “EC50 (read off the curve)” value: ~0.2 nM for the first, ~0.2 nM for the second.
